The data set concerns T1, GST-SGK2 fusion protein (human SGK2 with N-terminal Glutathione S-transferase tag, expressed in Hi5 insect cells).
T1 sequence: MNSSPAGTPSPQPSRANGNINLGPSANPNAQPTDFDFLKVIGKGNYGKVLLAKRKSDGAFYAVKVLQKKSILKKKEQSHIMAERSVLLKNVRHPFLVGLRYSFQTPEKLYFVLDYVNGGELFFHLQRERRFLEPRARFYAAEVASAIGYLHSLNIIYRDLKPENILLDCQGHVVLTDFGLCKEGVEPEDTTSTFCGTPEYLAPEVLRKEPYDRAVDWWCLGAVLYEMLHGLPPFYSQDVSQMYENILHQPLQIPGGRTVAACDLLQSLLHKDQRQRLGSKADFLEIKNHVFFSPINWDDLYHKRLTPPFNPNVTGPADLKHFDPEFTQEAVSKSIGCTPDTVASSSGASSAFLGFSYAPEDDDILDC

As to “active His-tag PDK1 (expressed in insect cells, purified on Talon affinity column)”, the “in vitro phosphorylation of SGK2 by PDK1 (32P, SDS-PAGE imaging)” value is “SGK2 activated by PKD1 was significantly phosphorylated, while non-activated SGK2 was not”.

The values are drawn from patent publication US20020123056.
